pIC50: −log10 of the molar value. Like-named read-outs stand apart in the source and are kept apart here.
How the values were obtained:
[1] = Solubility in water / aqueous buffers
[2] = Stability of the conjugates
CD36 macrophage receptor = biological target: T1, CD36 macrophage receptor (Mus musculus, UniProt Q08857); test: CD36 macrophage receptor binding competition assay (biotinylated CuOxLDL binding to J774 macrophages); design: species or system murine
T1 construct: endogenous in cells; host or cells: J774 murine macrophage cell line
T1 sequence (Q08857 whole entry): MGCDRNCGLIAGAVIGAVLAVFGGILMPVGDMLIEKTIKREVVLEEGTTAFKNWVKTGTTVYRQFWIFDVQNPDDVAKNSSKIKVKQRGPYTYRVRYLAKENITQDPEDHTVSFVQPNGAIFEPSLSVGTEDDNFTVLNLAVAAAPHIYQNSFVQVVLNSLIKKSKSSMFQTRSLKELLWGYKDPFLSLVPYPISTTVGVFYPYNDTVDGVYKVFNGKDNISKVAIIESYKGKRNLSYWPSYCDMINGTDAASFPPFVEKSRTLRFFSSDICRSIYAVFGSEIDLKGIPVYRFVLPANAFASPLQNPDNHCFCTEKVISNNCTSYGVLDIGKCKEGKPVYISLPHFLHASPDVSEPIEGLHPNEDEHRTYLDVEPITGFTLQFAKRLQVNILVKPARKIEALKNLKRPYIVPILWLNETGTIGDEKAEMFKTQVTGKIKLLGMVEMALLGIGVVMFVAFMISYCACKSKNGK
Source text: Data are given as relative light units (RLU) per 100 ms (milliseconds). The plot is a representative experiment chosen from among at least four experiments. […] Data are shown as mean±SD (Standard Deviation) of B/B0 from 2 independent experiments with triplicate determination. […] Data are shown as mean±SD of B/B0 from two independent experiments with triplicate determination. Data in FIG. 3B and FIG. 3C were produced in parallel experiments.
The fixed concentration of biotinylated CuOxLDL (1.8 pmol apoB/mL, corresponding 1 μg apoB/mL or 0.14 nmol PC-epitopes/mL) was preincubated with compound 6, the control peptide TGTKGG, CuOxLDL, or native LDL, added at the concentrations indicated on the graphs, and then tested for binding as described in the experimental section. The highest CuOxLDL concentration tested was 200 μg/mL, which corresponds to approximately 28.3 nmoles of PC-epitopes/mL, as estimated from the previous observation that 1 mole of apoB-100 from CuOxLDL contains 78±15 moles of covalently attached phosphorus^10, which it is assumed are PC-epitopes only. The concentration of native LDL is plotted at equal protein concentration to CuOxLDL (and thus not as molar concentration of PC-epitopes). Each data point represents the mean and SD of 2 independent experiments of triplicate wells.
Each of peptide-phospholipid conjugates 6 and 23-27 were tested as competitors in a CD36 macrophage receptor binding competition assay, where fixed concentrations of CuOxLDL were incubated with the serially diluted competitor and controls in PBS buffer. The IC50 of each competitor is reported below in Table 1, confirming the affinity of the compounds of the invention for the CD36 macrophage receptor:
Binding of biotinylated OxLDL ligands to murine macrophages plated in microtiter wells was assessed by a chemiluminescent binding assay. Isolated human LDL was biotinylated according to manufacturer's protocol (Catalog No. 21326; Pierce Biotechnology). Native and biotinylated native LDL were subjected to copper sulfate oxidation in parallel to prepare unlabelled and biotinylated CuOxLDL ligands, respectively. It has been previously shown that CuOxLDL contains approximately 78 moles of PC-epitopes per mole of apoB-100 (the sole protein on LDL). The biotinylated native LDL and CuOxLDL ligands of equal protein concentration were serially diluted and tested for binding to adherent macrophages. The specificity of the binding of biotinylated CuOxLDL to macrophages was tested in competition experiments, where fixed concentrations of biotinylated CuOxLDL were incubated with the serially diluted competitor and controls in PBS. The ligand-competitor solutions were incubated overnight at 4° C. Murine macrophages from the J774 cell line were cultured in 10% fetal bovine serum in DMEM (DMEM-10) and plated in 100 μL L929-fibroblast conditioned media at 100,000 or 25,000 cells/well, respectively, in sterile 96-well flat-bottom white plates (Greiner Bio-One). The plating media consisted of 20% L929-fibroblast conditioned DMEM-10 and 80% fresh DMEM-10 and served as a source of growth factors, including macrophage colony-stimulating factor. After 72 hours, the plates were washed gently 5 times with PBS using a microtiter plate washer (Dynex Technologies, Chantilly, Va.), and wells were blocked with ice-cold 200 μL DMEM for 30 min, while plates were kept on ice. After washing, macrophages were incubated with ice-cold ligand and ligand-competitor solutions (100 μL/well) for 2 hours on ice, washed again, and fixed with ice-cold 3.7% formaldehyde in PBS for 30 min in the dark. After fixing the macrophages, the remaining part of the assay was carried out at room temperature. Macrophage-bound biotinylated OxLDL ligands were detected with NeutrAvidin-conjugated alkaline phosphatase (Pierce Biotechnology), LumiPhos 530 (Lumigen, Southfield, Mich.), and a Dynex Luminometer (Dynex Technologies). […]

macrophages and T-cells = test: Affinity for macrophages and T-cells; assay type: cell-based

Structure (SMILES) | water solubility / solubility in aqueous buffers [1] | stability [2] | pIC50 (CD36 macrophage receptor) | other results
CCCCCCCCCCCCCCCC(=O)OCC(COP(=O)([O-])OCC[N+](C)(C)C)OC(=O)CCCCOCCCC[C@H](NC(=O)[C@H](C)NC(=O)[C@H](C)NC(C)=O)C(=O)N[C@@H](C)C(=O)N[C@@H](Cc1ccc(O)cc1)C(=O)O (stereo partly shown) [Compound 3] | poor water solubility | stable |  | 
CCCCCCCCCCCCCCCC(=O)OC[C@H](COP(=O)([O-])OCC[N+](C)(C)C)OC(=O)CCCCOCCCC[C@H](NC(=O)[C@@H](NC(=O)CNC(=O)[C@@H](NC(C)=O)[C@@H](C)O)[C@@H](C)O)C(=O)NCC(=O)N[C@@H](Cc1ccc(O)cc1)C(=O)O [Compound 4] | poor water solubility | stable |  | 
CCCCCCCCCCCCCCCC(=O)OC[C@H](COP(=O)([O-])OCC[N+](C)(C)C)OC(=O)CCCCCCCCC[C@H](NC(=O)[C@@H](NC(=O)CNC(=O)[C@@H](NC(C)=O)[C@@H](C)O)[C@@H](C)O)C(=O)NCC(=O)N[C@@H](Cc1ccc(O)cc1)C(=O)O [Compound 5] | poor water solubility | stable |  | 
CCCCCCCCCCCCCCCC(=O)OC[C@H](COP(=O)([O-])OCC[N+](C)(C)C)OC(=O)CCCCN(C)CCCC[C@H](NC(=O)[C@@H](NC(=O)CNC(=O)[C@@H](NC(C)=O)[C@@H](C)O)[C@@H](C)O)C(=O)NCC(=O)NCC(=O)O [Compound 6] | soluble in aqueous buffers | stable | 4.22 | competition with biotinylated CuOxLDL binding to macrophages (CD36 macrophage receptor; J774 macrophages, fixed biotinylated CuOxLDL 1.8 pmol apoB/mL (1 μg apoB/mL), FIG. 3B/3C, mean of 2 independent experiments, triplicate wells): more than 99%; affinity for macrophages and T-cells (macrophages and T-cells): showed affinity for macrophages and T-cells
CCCCCCCCCCCCCCCC(=O)OC[C@H](COP(=O)([O-])OCC[N+](C)(C)C)OC(=O)CCCCN(C)CCCC[C@H](NC(C)=O)C(=O)NCC(=O)NCC(=O)O [Compound 23] |  |  |  | pIC50 (CD36 macrophage receptor; competitor serially diluted, fixed concentration of CuOxLDL, PBS buffer, J774 macrophages, read-out: IC50): 4.42
CCCCCCCCCCCCCCCC(=O)OC[C@H](COP(=O)([O-])OCC[N+](C)(C)C)OC(=O)CCCCN(C)CCCC[C@H](NC(=O)[C@H](C)NC(C)=O)C(=O)NCC(=O)NCC(=O)O [Compound 24] |  |  | 3.88 | 
CCCCCCCCCCCCCCCC(=O)OC[C@H](COP(=O)([O-])OCC[N+](C)(C)C)OC(=O)CCCCN(C)CCCC[C@H](NC(=O)[C@@H](NC(C)=O)C(C)C)C(=O)NCC(=O)NCC(=O)O [Compound 25] |  |  | 4.26 | 
CCCCCCCCCCCCCCCC(=O)OC[C@H](COP(=O)([O-])OCC[N+](C)(C)C)OC(=O)CCCCN(C)CCCC[C@H](NC(=O)[C@H](Cc1ccccc1)NC(C)=O)C(=O)NCC(=O)NCC(=O)O [Compound 26] |  |  | 4.33 | 
CCCCCCCCCCCCCCCC(=O)OC[C@H](COP(=O)([O-])OCC[N+](C)(C)C)OC(=O)CCCCN(C)CCCC[C@H](NC(=O)[C@H](Cc1ccccc1)NC(=O)[C@H](C)NC(C)=O)C(=O)NCC(=O)NCC(=O)O [Compound 27] |  |  | 4.33 | 
